Source: patent US20180305409A1 (SHAANXI MICOT TECHNOLOGY, published 2018)
Bridge positions count the residues as written; N and C are the ends. Square brackets hold non-standard residues; d marks the D form. Ends that are not written are not given here. hArg = N=C(N)NCCCC[C@H](N)C(=O)O

B1: polypeptide 2 (peptide)
peptide: [dF]PRPGGGGNGRFEEIPEEYLEAAAKC[hArg]GDWPC
modifications: disulfide 26-32
B2: polypeptide 3 (peptide)
peptide: FPRPGGGGNGDFEEIPEEYLCXGDWPC
modifications: D-Phe at position 1 (N-terminal); Har (homoarginine) at position 22; disulfide bond between the two Cys (21 and 27)

Columns and labels:
[1] = target: platelet GPIIb/IIIa receptor (human, UniProt P08514 32-1039; P05106 27-788); experiment: cell-based or functional assay
human thrombin = human thrombin (human, UniProt P00734 328-622); experiment: cell-based or functional assay

Chain of platelet GPIIb/IIIa receptor (P08514 32-1039, chain 1 of 2): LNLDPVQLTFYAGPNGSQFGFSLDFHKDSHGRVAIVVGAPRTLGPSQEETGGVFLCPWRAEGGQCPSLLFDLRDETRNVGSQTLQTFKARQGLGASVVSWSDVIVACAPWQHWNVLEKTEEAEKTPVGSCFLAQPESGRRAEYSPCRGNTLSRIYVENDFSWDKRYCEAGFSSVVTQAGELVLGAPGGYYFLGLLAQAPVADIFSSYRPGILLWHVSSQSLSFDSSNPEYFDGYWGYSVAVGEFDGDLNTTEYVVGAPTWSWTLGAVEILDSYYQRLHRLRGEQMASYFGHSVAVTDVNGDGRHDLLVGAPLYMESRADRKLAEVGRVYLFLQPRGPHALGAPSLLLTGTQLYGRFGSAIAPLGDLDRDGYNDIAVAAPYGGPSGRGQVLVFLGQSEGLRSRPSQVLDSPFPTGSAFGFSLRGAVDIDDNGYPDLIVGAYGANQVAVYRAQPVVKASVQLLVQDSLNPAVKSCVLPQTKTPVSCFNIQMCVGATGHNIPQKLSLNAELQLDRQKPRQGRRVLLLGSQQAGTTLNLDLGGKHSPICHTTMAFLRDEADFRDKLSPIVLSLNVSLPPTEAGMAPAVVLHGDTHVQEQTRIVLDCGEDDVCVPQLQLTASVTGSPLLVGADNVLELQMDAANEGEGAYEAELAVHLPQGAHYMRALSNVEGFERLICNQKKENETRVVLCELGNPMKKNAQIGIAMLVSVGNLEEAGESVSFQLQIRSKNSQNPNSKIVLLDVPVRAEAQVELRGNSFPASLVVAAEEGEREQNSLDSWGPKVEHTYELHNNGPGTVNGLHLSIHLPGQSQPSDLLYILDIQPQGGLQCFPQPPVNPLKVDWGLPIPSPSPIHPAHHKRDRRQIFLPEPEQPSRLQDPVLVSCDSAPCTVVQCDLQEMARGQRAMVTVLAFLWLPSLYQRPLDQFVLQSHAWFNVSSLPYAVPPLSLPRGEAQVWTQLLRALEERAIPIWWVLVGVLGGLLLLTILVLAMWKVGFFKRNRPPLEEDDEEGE
Chain of platelet GPIIb/IIIa receptor (P05106 27-788, chain 2 of 2): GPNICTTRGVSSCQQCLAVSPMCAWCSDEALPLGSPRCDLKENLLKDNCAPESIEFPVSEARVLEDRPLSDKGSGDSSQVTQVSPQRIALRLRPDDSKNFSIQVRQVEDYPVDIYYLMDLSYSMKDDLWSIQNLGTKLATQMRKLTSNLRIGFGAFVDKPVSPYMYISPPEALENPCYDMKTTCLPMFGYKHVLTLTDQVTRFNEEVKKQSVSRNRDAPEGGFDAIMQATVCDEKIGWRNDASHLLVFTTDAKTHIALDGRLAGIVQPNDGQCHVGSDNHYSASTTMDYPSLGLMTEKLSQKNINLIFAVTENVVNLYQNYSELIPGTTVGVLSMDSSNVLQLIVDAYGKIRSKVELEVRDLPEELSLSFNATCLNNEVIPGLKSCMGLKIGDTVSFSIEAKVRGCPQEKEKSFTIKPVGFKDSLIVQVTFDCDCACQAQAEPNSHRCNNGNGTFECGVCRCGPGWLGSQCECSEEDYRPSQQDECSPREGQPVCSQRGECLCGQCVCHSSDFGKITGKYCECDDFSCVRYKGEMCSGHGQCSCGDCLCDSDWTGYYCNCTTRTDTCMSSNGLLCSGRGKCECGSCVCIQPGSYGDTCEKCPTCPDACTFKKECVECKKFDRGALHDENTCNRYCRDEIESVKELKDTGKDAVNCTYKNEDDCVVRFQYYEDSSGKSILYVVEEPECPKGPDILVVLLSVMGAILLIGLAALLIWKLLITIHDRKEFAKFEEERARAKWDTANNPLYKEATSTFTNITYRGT

Binder | Inhibitory rate of platelet aggregation (%), ADP-induced human platelet aggregation in vitro, 1 × 10-5 mol/L [1] | Inhibitory rate of platelet aggregation (%), ADP-induced human platelet aggregation in vitro, 3 × 10-6 mol/L [1] | Platelet aggregation rate (%), ADP-induced human platelet aggregation in vitro, 1 × 10-5 mol/L (saline 73.39) [1] | Platelet aggregation rate (%), ADP-induced human platelet aggregation in vitro, 3 × 10-6 mol/L (saline 73.39) [1] | APTT(S), human platelet poor plasma in vitro, 1 × 10^-6 mol/L (saline 33.10) (human thrombin) | Fold of Prolongation in APTT, 1 × 10^-6 mol/L (human thrombin) | Fold of Prolongation in PT, 1 × 10^-6 mol/L (human thrombin) | PT(S), human platelet poor plasma in vitro, 1 × 10^-6 mol/L (saline 11.22) (human thrombin) | TT(S), human platelet poor plasma in vitro, 1 × 10^-6 mol/L (saline 14.07) (human thrombin)
B1 | 100% | 66.7% | 0% | 26.1% | 104 s | 3.35 fold | 3.04 fold | 34.8 s | > 180 s
B2 | 47.1% | 26.4% | 35.4% | 57.9% | 102 s | 2.94 fold | 2.14 fold | 25.7 s | > 180 s
